{"source": "patent US20120129766A1", "about": "(IRM, published 2012)", "binders": {"B1": {"name": "hFGF21(33-209)-V86 (ligand)", "chain": "DSSPLLQFGGQVRQRYLYTDDAQQTEAHLEIREDGTVGGAADQSPESLLQLRALRPGVIQILGVRTSRFLCQRPDGALYGSLHFDPEACSFRELLLEDGYNVYQSEAHGLPLHLPGNRSPHKDPAPRGPARFLPLPGLPPAPPEPPGILAPQPPDVGSSDPLAMVGPSQGRSPSYAS"}, "B2": {"name": "hFGF21(33-209)-WT-N-40 kDa bPEG-AL (ligand)", "chain": "DSSPLLQFGGQVRQRYLYTDDAQQTEAHLEIREDGTVGGAADQSPESLLQLKALKPGVIQILGVKTSRFLCQRPDGALYGSLHFDPEACSFRELLLEDGYNVYQSEAHGLPLHLPGNKSPHRDPAPRGPARFLPLPGLPPALPEPPGILAPQPPDVGSSDPLSMVGPSQGRSPSYAS", "modifications": "40 kDa branched PEG (aldehyde reagent) on the N-terminal amine"}, "B3": {"name": "hFGF21(33-209)-V87 (ligand)", "chain": "DSSPLLQFGGQVRQRYLYTDDACQTEAHLEIREDGTVGGAADQSPESLLQLRALRPGVIQILGVRTSRFLCQRPDGALYGSLHFDPEACSFRELLLEDGYNVYQSEAHGLPLHLPCNRSPHKDPAPRGPARFLPLPGLPPAPPEPPGILAPQPPDVGSSDPLAMVGPSQGRSPSYAS"}, "B4": {"name": "hFGF21(33-209)-WT-R154C (ligand)", "chain": "DSSPLLQFGGQVRQRYLYTDDAQQTEAHLEIREDGTVGGAADQSPESLLQLKALKPGVIQILGVKTSRFLCQRPDGALYGSLHFDPEACSFRELLLEDGYNVYQSEAHGLPLHLPGNKSPHCDPAPRGPARFLPLPGLPPALPEPPGILAPQPPDVGSSDPLSMVGPSQGRSPSYAS"}, "B5": {"name": "hFGF21(33-209)-WT-CH (ligand)", "chain": "DSSPLLQFGGQVRQRYLYTDDAQQTEAHLEIREDGTVGGAADQSPESLLQLKALKPGVIQILGVKTSRFLCQRPDGALYGSLHFDPEACSFRELLLEDGYNVYQSEAHGLPLHLPGNKSPHRDPAPRGPARFLPLPGLPPALPEPPGILAPQPPDVGSSDPLSMVGPSQGRSPSYAS"}, "B6": {"name": "hFGF21(33-209)-WT-R154C-40 kDa bPEG-MA (ligand)", "chain": "DSSPLLQFGGQVRQRYLYTDDAQQTEAHLEIREDGTVGGAADQSPESLLQLKALKPGVIQILGVKTSRFLCQRPDGALYGSLHFDPEACSFRELLLEDGYNVYQSEAHGLPLHLPGNKSPHCDPAPRGPARFLPLPGLPPALPEPPGILAPQPPDVGSSDPLSMVGPSQGRSPSYAS", "modifications": "40 kDa branched maleimido-PEG on Cys 154 (numbered on SEQ ID NO:1)"}, "B7": {"name": "hFGF21(33-209)-WT-AM (ligand)", "chain": "DSSPLLQFGGQVRQRYLYTDDAQQTEAHLEIREDGTVGGAADQSPESLLQLKALKPGVIQILGVKTSRFLCQRPDGALYGSLHFDPEACSFRELLLEDGYNVYQSEAHGLPLHLPGNKSPHRDPAPRGPARFLPLPGLPPAPPEPPGILAPQPPDVGSSDPLSMVGPSQGRSPSYAS"}}, "data": [{"biological_target": "T1, human β-klotho (human, UniProt Q86Z14 1-1044)", "T1 sequence (looked up)": "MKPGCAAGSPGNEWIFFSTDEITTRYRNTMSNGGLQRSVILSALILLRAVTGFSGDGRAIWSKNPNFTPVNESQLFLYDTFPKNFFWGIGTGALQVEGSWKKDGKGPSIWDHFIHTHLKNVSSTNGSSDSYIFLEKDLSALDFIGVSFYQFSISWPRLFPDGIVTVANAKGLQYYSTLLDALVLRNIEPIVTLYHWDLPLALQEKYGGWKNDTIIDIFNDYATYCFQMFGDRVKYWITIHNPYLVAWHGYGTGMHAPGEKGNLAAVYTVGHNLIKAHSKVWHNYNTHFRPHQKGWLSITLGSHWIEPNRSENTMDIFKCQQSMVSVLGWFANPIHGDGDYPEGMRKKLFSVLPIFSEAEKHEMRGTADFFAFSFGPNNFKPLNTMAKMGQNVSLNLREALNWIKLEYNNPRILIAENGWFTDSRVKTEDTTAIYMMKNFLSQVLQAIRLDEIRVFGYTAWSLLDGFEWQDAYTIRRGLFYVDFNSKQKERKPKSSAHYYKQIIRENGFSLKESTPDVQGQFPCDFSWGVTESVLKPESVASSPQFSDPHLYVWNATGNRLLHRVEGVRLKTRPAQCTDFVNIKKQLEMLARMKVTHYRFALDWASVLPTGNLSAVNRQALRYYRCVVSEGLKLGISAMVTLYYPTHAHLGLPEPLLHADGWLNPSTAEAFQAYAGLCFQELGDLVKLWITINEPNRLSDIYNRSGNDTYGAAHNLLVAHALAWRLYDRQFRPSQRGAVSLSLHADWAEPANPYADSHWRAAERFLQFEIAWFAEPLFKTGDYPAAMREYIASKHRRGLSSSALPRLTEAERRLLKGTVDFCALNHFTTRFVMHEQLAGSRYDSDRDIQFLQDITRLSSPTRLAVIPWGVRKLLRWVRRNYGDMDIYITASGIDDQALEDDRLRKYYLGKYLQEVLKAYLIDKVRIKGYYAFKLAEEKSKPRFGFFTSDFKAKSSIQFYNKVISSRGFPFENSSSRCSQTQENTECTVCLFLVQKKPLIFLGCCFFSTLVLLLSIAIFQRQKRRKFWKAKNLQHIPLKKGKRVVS", "assay": "cell-based or functional assay", "units": {"EC50 (nM), pERK In Cell Western": "nM", "Fold-WT (EC50 of variant / EC50 of FGF21-WT)": "fold"}, "values": [{"binder": "B1", "EC50 (nM), pERK In Cell Western": 8.5, "Fold-WT (EC50 of variant / EC50 of FGF21-WT)": 4.5}, {"binder": "B2", "EC50 (nM), pERK In Cell Western": 20, "Fold-WT (EC50 of variant / EC50 of FGF21-WT)": 6.3}, {"binder": "B3", "EC50 (nM), pERK In Cell Western": 1.9, "Fold-WT (EC50 of variant / EC50 of FGF21-WT)": 1.6}, {"binder": "B4", "EC50 (nM), pERK In Cell Western": 4.2, "Fold-WT (EC50 of variant / EC50 of FGF21-WT)": 1.3}, {"binder": "B5", "EC50 (nM), pERK In Cell Western": 7.4, "Fold-WT (EC50 of variant / EC50 of FGF21-WT)": 1}, {"binder": "B6", "EC50 (nM), pERK In Cell Western": 9, "Fold-WT (EC50 of variant / EC50 of FGF21-WT)": 2.9}, {"binder": "B7", "EC50 (nM), pERK In Cell Western": 5.7, "Fold-WT (EC50 of variant / EC50 of FGF21-WT)": 1.5}]}]}
